Changes are numbered by the printed parent chain.
B1: 09A12 (antibody, IgG4, V domains shown)
VH: QVQLVQSGAEVKKPGASVKVSCKASGYTFTSYSMHWVRQAPGQGLEWMGWINPNGGLTNYAQKFRGRVTMTRDTSTSTVYMELSSLRSEDTAVYYCAREEITTEFDYWGQGTLVTVSS
VL: EIVLTQSPGTLSLSPGERATLSCRASQSVSSYAQSYLHWYQQKPGQAPRLLIYRASTRETGIPDRFSGSGSGTDFTLTISRLEPEDFAVYYCQQSKESPLTFGGGTKVEIK
B2: 07A01 (antibody, IgG4, V domains shown)
VH: B1 VH with T28I, S33T, T58A, N59S, R65Q, E99S, F105Q
VL: B1 VL with S30D, Q34N, A55G, T60S

How the values were obtained:
[1] = target: cynomolgus monkey C-MET on stably transfected CHO-K1 cells (cynomolgus monkey); assay: flow cytometry, C-MET CHO-K1 cells
[2] = target: human C-MET on stably transfected CHO-K1 cells (human) (UniProt P08581); assay: flow cytometry, C-MET CHO-K1 cells
[3] = target: cynomolgus monkey C-MET His tag, monomeric (cynomolgus monkey); assay: SPR Biacore, IgG captured, monomeric C-MET-His analyte
[4] = target: human C-MET His tagged, monomeric (human) (UniProt P08581); assay: as above
[5] = target: cynomolgus monkey C-MET His tag, monomeric (cynomolgus monkey); assay: SPR Biacore, monomeric cyno against monomeric human C-MET

cynomolgus monkey C-MET His tag, monomeric (cynomolgus monkey), sequence (A0M8R7 25-932 S170N/I621T): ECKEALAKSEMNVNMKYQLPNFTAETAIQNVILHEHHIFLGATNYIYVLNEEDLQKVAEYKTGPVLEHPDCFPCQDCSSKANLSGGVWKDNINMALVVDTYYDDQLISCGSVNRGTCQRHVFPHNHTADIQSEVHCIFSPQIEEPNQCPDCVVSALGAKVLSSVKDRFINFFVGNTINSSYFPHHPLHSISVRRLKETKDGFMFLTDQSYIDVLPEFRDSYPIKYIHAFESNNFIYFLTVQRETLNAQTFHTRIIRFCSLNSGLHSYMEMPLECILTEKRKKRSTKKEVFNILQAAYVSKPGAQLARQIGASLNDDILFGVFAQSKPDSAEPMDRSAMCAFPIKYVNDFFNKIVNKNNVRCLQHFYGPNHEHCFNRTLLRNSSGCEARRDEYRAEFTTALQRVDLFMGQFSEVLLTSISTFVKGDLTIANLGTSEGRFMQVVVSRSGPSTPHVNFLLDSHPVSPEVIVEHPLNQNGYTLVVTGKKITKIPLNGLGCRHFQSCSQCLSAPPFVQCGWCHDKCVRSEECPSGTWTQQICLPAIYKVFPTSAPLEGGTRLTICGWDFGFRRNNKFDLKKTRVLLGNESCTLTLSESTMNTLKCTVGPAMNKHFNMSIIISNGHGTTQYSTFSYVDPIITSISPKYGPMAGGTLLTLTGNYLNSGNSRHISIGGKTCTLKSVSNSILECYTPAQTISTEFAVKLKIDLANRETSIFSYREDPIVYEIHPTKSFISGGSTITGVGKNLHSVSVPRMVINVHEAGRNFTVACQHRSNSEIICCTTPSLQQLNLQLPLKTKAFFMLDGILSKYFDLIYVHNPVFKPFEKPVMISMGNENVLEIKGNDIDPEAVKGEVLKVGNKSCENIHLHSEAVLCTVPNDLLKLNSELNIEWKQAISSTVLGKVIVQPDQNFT
human C-MET on stably transfected CHO-K1 cells (human), sequence (P08581 25-1390 limits assumed): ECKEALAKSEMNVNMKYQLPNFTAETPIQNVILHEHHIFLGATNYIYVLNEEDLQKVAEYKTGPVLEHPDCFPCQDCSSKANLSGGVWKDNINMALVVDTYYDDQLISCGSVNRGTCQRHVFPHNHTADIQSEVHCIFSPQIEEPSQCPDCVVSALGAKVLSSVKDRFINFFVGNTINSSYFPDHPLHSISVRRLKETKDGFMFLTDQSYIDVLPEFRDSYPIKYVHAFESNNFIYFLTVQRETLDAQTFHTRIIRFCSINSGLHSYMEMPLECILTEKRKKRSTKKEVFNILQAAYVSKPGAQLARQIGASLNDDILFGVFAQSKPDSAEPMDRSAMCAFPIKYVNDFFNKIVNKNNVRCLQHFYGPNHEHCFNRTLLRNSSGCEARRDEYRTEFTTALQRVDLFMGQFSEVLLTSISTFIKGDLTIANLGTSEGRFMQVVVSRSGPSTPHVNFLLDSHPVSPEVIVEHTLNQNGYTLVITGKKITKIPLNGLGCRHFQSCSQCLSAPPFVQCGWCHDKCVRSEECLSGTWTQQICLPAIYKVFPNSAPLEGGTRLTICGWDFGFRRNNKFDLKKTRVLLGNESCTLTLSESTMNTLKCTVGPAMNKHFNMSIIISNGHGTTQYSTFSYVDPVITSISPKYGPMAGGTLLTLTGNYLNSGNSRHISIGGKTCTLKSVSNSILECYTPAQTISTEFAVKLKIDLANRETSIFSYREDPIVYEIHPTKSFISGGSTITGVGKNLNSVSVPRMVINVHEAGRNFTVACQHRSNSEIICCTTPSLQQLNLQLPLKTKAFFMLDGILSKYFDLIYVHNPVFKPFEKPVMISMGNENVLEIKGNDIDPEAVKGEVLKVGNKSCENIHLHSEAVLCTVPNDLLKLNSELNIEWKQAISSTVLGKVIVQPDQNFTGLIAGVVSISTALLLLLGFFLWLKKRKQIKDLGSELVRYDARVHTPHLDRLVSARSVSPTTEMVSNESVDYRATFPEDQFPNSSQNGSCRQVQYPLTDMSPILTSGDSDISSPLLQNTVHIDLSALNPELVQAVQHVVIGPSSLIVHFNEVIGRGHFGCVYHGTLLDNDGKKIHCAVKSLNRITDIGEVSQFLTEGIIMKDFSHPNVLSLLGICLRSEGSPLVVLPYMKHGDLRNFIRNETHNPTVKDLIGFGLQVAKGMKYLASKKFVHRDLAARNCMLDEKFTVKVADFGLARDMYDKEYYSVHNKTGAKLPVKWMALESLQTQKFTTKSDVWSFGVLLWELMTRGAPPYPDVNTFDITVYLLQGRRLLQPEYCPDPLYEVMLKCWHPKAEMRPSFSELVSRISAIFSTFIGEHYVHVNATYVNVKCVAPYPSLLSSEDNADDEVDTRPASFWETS
cynomolgus monkey C-MET on stably transfected CHO-K1 cells (cynomolgus monkey), sequence (A0M8R7 25-1381 S170N/I621T limits assumed): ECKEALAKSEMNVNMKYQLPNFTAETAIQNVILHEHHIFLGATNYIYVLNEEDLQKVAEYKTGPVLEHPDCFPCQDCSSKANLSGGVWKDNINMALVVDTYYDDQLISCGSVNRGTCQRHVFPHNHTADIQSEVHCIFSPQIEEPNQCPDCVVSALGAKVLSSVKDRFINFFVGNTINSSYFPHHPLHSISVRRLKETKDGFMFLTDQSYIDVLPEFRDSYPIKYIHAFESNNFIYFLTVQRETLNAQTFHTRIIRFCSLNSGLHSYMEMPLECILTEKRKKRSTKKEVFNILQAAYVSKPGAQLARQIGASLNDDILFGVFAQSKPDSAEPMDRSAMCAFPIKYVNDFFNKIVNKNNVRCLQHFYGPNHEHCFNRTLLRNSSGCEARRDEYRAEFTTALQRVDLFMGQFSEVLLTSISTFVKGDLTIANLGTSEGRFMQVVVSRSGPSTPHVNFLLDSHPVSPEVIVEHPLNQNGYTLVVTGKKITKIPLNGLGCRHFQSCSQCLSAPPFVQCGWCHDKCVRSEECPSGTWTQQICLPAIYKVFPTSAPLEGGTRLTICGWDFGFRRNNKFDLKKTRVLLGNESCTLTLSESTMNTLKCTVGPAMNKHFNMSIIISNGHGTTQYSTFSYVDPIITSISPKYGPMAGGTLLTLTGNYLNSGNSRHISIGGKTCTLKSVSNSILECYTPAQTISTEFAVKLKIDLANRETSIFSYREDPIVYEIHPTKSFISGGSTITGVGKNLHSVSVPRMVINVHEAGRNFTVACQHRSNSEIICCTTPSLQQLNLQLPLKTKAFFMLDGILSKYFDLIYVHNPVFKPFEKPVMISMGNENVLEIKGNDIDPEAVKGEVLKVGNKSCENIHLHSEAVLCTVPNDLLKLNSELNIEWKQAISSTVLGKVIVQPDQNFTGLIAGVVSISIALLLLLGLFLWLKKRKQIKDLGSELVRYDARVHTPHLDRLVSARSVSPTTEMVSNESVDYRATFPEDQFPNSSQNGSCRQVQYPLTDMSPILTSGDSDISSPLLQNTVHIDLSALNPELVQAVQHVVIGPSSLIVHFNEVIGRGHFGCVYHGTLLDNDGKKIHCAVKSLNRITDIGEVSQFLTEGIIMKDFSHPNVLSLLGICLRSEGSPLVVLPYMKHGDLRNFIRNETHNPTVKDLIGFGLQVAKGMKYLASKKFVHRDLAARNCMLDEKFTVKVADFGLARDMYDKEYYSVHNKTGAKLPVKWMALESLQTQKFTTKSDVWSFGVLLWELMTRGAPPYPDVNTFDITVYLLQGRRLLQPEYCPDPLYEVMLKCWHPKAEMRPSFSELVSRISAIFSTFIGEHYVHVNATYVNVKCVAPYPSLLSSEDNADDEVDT
human C-MET His tagged, monomeric (human), sequence (P08581 25-932): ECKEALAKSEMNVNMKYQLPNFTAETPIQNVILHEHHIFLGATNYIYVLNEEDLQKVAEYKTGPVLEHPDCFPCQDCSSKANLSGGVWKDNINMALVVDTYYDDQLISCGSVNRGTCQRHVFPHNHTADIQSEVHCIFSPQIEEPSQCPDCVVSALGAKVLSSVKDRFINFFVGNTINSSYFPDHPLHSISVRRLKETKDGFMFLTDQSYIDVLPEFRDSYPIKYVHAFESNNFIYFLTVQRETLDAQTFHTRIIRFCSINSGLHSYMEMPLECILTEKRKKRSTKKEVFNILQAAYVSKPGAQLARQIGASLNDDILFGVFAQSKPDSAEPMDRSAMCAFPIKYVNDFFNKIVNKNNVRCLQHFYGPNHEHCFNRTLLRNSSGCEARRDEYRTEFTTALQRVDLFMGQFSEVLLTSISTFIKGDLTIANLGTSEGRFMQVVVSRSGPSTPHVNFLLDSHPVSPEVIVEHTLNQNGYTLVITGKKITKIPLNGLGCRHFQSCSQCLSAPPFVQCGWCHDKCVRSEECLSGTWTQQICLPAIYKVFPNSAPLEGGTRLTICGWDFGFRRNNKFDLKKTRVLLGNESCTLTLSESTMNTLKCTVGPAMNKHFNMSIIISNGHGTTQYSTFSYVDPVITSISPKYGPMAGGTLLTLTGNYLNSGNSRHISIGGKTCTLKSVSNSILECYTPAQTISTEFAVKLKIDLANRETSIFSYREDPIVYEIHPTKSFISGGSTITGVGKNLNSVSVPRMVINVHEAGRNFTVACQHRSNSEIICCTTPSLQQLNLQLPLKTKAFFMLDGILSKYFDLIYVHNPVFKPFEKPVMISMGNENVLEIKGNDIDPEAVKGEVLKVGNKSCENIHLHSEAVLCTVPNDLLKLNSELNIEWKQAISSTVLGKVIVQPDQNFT

Row | Binder | EC50 [1] [nM] | maximum MFI, fold over Isotype IgG4 background [1] [fold] | EC50 [2] [nM] | maximum MFI, fold over Isotype IgG4 background [2] [fold] | Kd [3] [nM] | koff [3] [s⁻¹] | kon [3] [M⁻¹ s⁻¹] | Kd [4] [nM] | koff [4] [s⁻¹] | kon [4] [M⁻¹ s⁻¹] | cyno C-MET affinity, fold of the human C-MET affinity [5] [fold]
1 | B1 | 0.28 | > 10 | 2.33 | > 10 | 1.5 | 0.00023 | 160000 | 2 | 0.00015 | 74000 | 
2 | B2 | 1.74 | > 10 | 7.44 | > 10 | 0.17 | 1.6e-05 | 94000 | 0.24 | 1.3e-05 | 56000 | < 2
